B1: H183/L072 VH K52P (antibody, name in Kabat numbering, V domains shown)
VH: QVQLVESGGGLVQPGRSLRLSCAASGFTFSNAWMHWVRQAPGKGLEWVAQIPDKGNAYAAYYAPSVKGRFTISRDDSKNSIYLQMNSLKTEDTAVYYCHYVHYASASTVLPAFGVDAWGQGTTVTVSS
VL: DIVMTQSPLSLPVTPGEPASISCQASQELVHMNRNTYLHWYQQKPGQAPRLLIYKVSNRFPGVPDRFSGSGSGTDFTLKISRVEAEDVGVYYCAQGTSVPFTFGQGTKLEIK
B2: H183/L072 VH K52S (antibody, name in Kabat numbering, V domains shown)
VH: B1 VH with P52S
VL: B1 VL
B3: H183/L072 VH M34S (antibody, name in Kabat numbering, V domains shown)
VH: B1 VH with M34S, P52K
VL: B1 VL
B4: H183/L072 VH M34N (antibody, name in Kabat numbering, V domains shown)
VH: B1 VH with M34N, P52K
VL: B1 VL
B5: H183/L072 VH D52aG (antibody, name in Kabat numbering, V domains shown)
VH: B1 VH with P52K, D53G
VL: B1 VL
B6: H183/L072 VH W33Q (antibody, name in Kabat numbering, V domains shown)
VH: B1 VH with W33Q, P52K
VL: B1 VL
B7: H183/L072 VH D52aS (antibody, name in Kabat numbering, V domains shown)
VH: B1 VH with P52K, D53S
VL: B1 VL
B8: H183/L072 VH H35Q (antibody, name in Kabat numbering, V domains shown)
VH: B1 VH with H35Q, P52K
VL: B1 VL
B9: H183/L072 VH D52aT (antibody, name in Kabat numbering, V domains shown)
VH: B1 VH with P52K, D53T
VL: B1 VL
B10: H183/L072 VH D52aV (antibody, name in Kabat numbering, V domains shown)
VH: B1 VH with P52K, D53V
VL: B1 VL
B11: H183/L072 VH D52aQ (antibody, name in Kabat numbering, V domains shown)
VH: B1 VH with P52K, D53Q
VL: B1 VL
B12: H183/L072 VH N53V (antibody, name in Kabat numbering, V domains shown)
VH: B1 VH with P52K, N56V
VL: B1 VL
B13: H183/L072 VH H35S (antibody, name in Kabat numbering, V domains shown)
VH: B1 VH with H35S, P52K
VL: B1 VL
B14: H183/L072 VH D52aN (antibody, name in Kabat numbering, V domains shown)
VH: B1 VH with P52K, D53N
VL: B1 VL
B15: H183/L072 VH Q50G (antibody, name in Kabat numbering, V domains shown)
VH: B1 VH with Q50G, P52K
VL: B1 VL
B16: H183/L072 VH F29N (antibody, name in Kabat numbering, V domains shown)
VH: B1 VH with F29N, P52K
VL: B1 VL
B17: H183/L072 VH N53G (antibody, name in Kabat numbering, V domains shown)
VH: B1 VH with P52K, N56G
VL: B1 VL
B18: H183/L072 VH W33S (antibody, name in Kabat numbering, V domains shown)
VH: B1 VH with W33S, P52K
VL: B1 VL
B19: H183/L072 VH T28S (antibody, name in Kabat numbering, V domains shown)
VH: B1 VH with T28S, P52K
VL: B1 VL
B20: H183/L072 VH M34G (antibody, name in Kabat numbering, V domains shown)
VH: B1 VH with M34G, P52K
VL: B1 VL
B21: H183/L072 VH I51Q (antibody, name in Kabat numbering, V domains shown)
VH: B1 VH with I51Q, P52K
VL: B1 VL
B22: H183/L072 VH W33G (antibody, name in Kabat numbering, V domains shown)
VH: B1 VH with W33G, P52K
VL: B1 VL
B23: H183/L072 VH N53P (antibody, name in Kabat numbering, V domains shown)
VH: B1 VH with P52K, N56P
VL: B1 VL
B24: H183/L072 VH F29Q (antibody, name in Kabat numbering, V domains shown)
VH: B1 VH with F29Q, P52K
VL: B1 VL
B25: H183/L072 VH K52T (antibody, name in Kabat numbering, V domains shown)
VH: B1 VH with P52T
VL: B1 VL
B26: H183/L072 VH M34T (antibody, name in Kabat numbering, V domains shown)
VH: B1 VH with M34T, P52K
VL: B1 VL
B27: H183/L072 VH N53S (antibody, name in Kabat numbering, V domains shown)
VH: B1 VH with P52K, N56S
VL: B1 VL
B28: H183/L072 VH K52V (antibody, name in Kabat numbering, V domains shown)
VH: B1 VH with P52V
VL: B1 VL
B29: H183/L072 VH A54P (antibody, name in Kabat numbering, V domains shown)
VH: B1 VH with P52K, A57P
VL: B1 VL
B30: H183/L072 VH W33V (antibody, name in Kabat numbering, V domains shown)
VH: B1 VH with W33V, P52K
VL: B1 VL
B31: H183/L072 VH T28N (antibody, name in Kabat numbering, V domains shown)
VH: B1 VH with T28N, P52K
VL: B1 VL
B32: H183/L072 VH M34Q (antibody, name in Kabat numbering, V domains shown)
VH: B1 VH with M34Q, P52K
VL: B1 VL
B33: H183/L072 VH H35G (antibody, name in Kabat numbering, V domains shown)
VH: B1 VH with H35G, P52K
VL: B1 VL
B34: H183/L072 VH Y55P (antibody, name in Kabat numbering, V domains shown)
VH: B1 VH with P52K, Y58P
VL: B1 VL
B35: H183/L072 VH F29S (antibody, name in Kabat numbering, V domains shown)
VH: B1 VH with F29S, P52K
VL: B1 VL
B36: H183/L072 VH D52aP (antibody, name in Kabat numbering, V domains shown)
VH: B1 VH with P52K, D53P
VL: B1 VL
B37: H183/L072 VH Y55S (antibody, name in Kabat numbering, V domains shown)
VH: B1 VH with P52K, Y58S
VL: B1 VL
B38: H183/L072 VH G26V (antibody, name in Kabat numbering, V domains shown)
VH: B1 VH with G26V, P52K
VL: B1 VL
B39: H183/L072 VH K52G (antibody, name in Kabat numbering, V domains shown)
VH: B1 VH with P52G
VL: B1 VL
B40: H183/L072 VH N53Q (antibody, name in Kabat numbering, V domains shown)
VH: B1 VH with P52K, N56Q
VL: B1 VL
B41: H183/L072 VH W33T (antibody, name in Kabat numbering, V domains shown)
VH: B1 VH with W33T, P52K
VL: B1 VL
B42: H183/L072 VH W33N (antibody, name in Kabat numbering, V domains shown)
VH: B1 VH with W33N, P52K
VL: B1 VL
B43: H183/L072 VH F29G (antibody, name in Kabat numbering, V domains shown)
VH: B1 VH with F29G, P52K
VL: B1 VL
B44: H183/L072 VH Y55V (antibody, name in Kabat numbering, V domains shown)
VH: B1 VH with P52K, Y58V
VL: B1 VL

Changes are numbered by the printed parent chain. In names and notes the source's numbering stands.

Sequence of Human CD137 ECD (human) (chain, as listed by the source limits assumed): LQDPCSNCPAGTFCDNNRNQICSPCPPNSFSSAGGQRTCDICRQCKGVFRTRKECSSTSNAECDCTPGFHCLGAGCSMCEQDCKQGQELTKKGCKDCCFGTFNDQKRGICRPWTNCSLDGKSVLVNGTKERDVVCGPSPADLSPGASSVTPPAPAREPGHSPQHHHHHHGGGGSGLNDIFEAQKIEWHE

The test addresses Human CD137 ECD (human). As to the kind of experiment: single mutant vs template dBBDu183H.
On to B1, for which the fold change of affinity was 0 fold. Regarding B2, the fold change of affinity is 0 fold. Take B3: the fold change of affinity was determined as 0 fold. For the molecule B4, the fold change of affinity came out at 0 fold. Under B5 stands 0 fold; under B6, 0 fold. On to B7, for which the fold change of affinity came out at 0 fold. For B8 the value was 0 fold. B9: the fold change of affinity came out at 0 fold. As for B10, the fold change of affinity amounted to 0 fold. For B11 the value was 0 fold; for B12, 0 fold; for B13, 0 fold. Turning to B14, the fold change of affinity turned out to be 0 fold. With B15, the fold change of affinity is 0 fold. Under B16 stands 0 fold; under B17, 0 fold; under B18, 0 fold. With B19, the fold change of affinity came to 0 fold. Turning to B20, the fold change of affinity worked out at 0 fold. As for B21, the fold change of affinity came out at 0 fold. Consider B22, for which the fold change of affinity turned out to be 0 fold. For B23, the fold change of affinity was 0 fold. Take B24: the fold change of affinity is 0 fold.

As to B25, the fold change of affinity was found to be 0 fold. As to B26, the fold change of affinity came out at 0 fold. As to B27, the fold change of affinity came to 0 fold. On to B28, for which the fold change of affinity amounted to 0 fold. Regarding B29, the fold change of affinity worked out at 0 fold. For B30 the value was 0 fold; for B31, 0 fold.

For B32, the fold change of affinity is 0 fold. Regarding B33, the fold change of affinity worked out at 0 fold. B34: the fold change of affinity is 0 fold. Take B35: the fold change of affinity stood at 0 fold.

Consider B36, for which the fold change of affinity stood at 0 fold. Regarding B37, the fold change of affinity came out at 0 fold. Under B38 stands 0 fold; under B39, 0 fold; under B40, 0 fold. Regarding B41, the fold change of affinity amounted to 0 fold. Consider B42, for which the fold change of affinity is 0 fold. Turning to B43, the fold change of affinity was 0 fold. For the molecule B44, the fold change of affinity turned out to be 0 fold.
